In paper doi:10.1101/2020.06.11.147496 one finds percent of nanoparticle subunits conjugated data, which are given here for one substance.

Test [1] deals with LuS-N71-SpyTag (Aquifex aeolicus lumazine synthase nanoparticle with a glycan at N71 and SpyTag at the N-terminus) (Aquifex aeolicus).
In test [2] the target is ferritin-N96-SpyTag (Helicobacter pylori ferritin nanoparticle with a glycan at N96 and SpyTag) (Helicobacter pylori).

As to “RSV F-SpyCatcher (respiratory syncytial virus prefusion F 'DS2' trimer with SpyCatcher at the C-terminus)”, the percent of nanoparticle subunits conjugated in test [1] was found to be 67%; in test [2], 85%.
